# In publication PMC8273617:
# How the values were obtained:
# VWF (Homo sapiens) = VWF (Homo sapiens) (UniProt P04275); details: cited from earlier work
# CD16 (Homo sapiens) = CD16 (Homo sapiens) (UniProt P08637); details: cited from earlier work
# [1] = target: Fc gamma receptor IIIA (FcγRIIIA/CD16) on PTA-6967 NK cells (human) (UniProt P08637)
# [2] = target: Fc gamma receptor IIIA (FcγRIIIA/CD16) on PTA-6967 NK cells (human) (UniProt P08637); remark: listed apart in the source
# Sequence of Fc gamma receptor IIIA (FcγRIIIA/CD16) on PTA-6967 NK cells (human) (P08637 17-254): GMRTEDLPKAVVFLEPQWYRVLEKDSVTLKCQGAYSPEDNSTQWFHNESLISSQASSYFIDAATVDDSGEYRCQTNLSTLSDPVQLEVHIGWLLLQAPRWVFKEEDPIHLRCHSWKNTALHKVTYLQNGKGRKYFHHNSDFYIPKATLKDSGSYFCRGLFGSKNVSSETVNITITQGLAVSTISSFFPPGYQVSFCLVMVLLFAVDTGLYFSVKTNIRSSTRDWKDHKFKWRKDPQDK
# Sequence of FVIII (P00451 20-2351): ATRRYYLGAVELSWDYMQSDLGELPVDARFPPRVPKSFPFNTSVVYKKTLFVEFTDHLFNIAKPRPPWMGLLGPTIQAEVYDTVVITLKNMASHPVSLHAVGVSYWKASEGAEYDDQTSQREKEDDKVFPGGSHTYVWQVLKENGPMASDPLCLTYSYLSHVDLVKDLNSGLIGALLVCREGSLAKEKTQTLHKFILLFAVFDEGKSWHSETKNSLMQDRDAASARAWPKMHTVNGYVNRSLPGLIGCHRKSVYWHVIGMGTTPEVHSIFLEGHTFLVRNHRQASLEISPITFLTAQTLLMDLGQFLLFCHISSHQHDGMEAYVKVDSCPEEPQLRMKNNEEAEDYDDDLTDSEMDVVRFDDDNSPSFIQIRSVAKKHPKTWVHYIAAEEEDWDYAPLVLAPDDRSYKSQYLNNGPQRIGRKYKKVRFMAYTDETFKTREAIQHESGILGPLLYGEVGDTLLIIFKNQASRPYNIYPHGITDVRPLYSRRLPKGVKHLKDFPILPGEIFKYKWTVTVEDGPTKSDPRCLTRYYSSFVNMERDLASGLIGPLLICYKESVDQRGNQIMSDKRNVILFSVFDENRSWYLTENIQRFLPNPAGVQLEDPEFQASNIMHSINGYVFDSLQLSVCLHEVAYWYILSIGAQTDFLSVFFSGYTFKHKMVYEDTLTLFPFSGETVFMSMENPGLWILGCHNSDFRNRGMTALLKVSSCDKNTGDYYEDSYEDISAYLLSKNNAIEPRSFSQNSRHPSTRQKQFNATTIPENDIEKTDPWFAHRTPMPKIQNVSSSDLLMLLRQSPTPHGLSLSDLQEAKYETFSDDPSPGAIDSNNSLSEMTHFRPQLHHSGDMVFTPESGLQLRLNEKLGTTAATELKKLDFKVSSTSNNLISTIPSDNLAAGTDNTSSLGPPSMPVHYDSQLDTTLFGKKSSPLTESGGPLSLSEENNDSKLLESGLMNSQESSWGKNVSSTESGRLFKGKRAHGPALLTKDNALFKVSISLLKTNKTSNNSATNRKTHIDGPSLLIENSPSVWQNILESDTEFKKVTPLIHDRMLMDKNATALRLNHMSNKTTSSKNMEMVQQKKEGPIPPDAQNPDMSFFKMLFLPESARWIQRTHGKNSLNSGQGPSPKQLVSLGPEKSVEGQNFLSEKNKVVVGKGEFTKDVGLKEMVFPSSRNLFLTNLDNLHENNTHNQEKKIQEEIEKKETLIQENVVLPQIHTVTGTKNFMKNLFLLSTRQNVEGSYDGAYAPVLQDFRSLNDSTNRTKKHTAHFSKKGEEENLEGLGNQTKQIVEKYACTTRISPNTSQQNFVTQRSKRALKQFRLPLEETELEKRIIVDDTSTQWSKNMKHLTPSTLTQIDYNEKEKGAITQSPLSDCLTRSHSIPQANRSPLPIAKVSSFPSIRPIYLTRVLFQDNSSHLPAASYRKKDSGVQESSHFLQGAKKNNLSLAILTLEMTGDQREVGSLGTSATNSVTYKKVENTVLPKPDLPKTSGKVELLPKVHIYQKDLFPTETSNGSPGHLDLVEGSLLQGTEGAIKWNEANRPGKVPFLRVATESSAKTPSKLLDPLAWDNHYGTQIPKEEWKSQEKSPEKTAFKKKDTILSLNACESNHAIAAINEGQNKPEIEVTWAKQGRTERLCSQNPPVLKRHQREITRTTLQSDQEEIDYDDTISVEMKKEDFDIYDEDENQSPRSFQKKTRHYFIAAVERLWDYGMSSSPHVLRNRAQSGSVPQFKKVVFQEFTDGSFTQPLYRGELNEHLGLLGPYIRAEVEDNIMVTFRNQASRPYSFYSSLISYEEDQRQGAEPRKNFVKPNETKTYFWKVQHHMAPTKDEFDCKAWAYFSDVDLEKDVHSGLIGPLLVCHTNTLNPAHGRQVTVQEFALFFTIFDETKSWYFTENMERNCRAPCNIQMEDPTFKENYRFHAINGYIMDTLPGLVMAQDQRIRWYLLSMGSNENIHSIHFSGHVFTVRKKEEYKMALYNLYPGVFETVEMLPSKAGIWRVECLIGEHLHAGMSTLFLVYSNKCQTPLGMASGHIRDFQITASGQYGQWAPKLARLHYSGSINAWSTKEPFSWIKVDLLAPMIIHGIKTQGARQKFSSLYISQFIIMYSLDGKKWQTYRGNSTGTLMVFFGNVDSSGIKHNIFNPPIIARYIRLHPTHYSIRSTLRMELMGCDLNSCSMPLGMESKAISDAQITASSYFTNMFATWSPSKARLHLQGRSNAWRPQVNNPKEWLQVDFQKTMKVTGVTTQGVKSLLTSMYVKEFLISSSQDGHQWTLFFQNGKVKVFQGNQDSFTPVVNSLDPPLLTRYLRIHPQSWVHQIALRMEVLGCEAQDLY
# Sequence of CD16 (Homo sapiens) (P08637 17-254): as the sequence (P08637 17-254) above
substance,measurement,setting,value
FVIII (from UniProt P00451),Kd,VWF (Homo sapiens),0.2 nM
IgG1 Fc Fc (from UniProt P01857),Kd,CD16 (Homo sapiens),1000 nM
recombinant Factor VIII Fc-fusion protein (rFVIIIFc) (Fc fusion),"EC50 of IFNγ secretion (ELISA) by CD16^+ NK cells (PTA-6967), overnight, rFVIIIFc 250 nM to 7.6 pM (Figure 2B)",[1],0.0064 µM
same,"surface CD107a (LAMP1), % LAMP1^+ PTA-6967 NK cells by flow cytometry after 6 hours with 250 nM rFVIIIFc, against untreated cells (Figure 2E)",[2],8 fold
